Results from US9969998B2, “Compositions of adenosine deaminase-2 (ADA2), variants thereof and methods of using same” (Halozyme, Inc., priority 2014, dated 2018).
Like-named read-outs stand apart in the source and are kept apart here.

How the values were obtained:
[1] = Adenosine deaminase (ADA) activity assay; format: biochemical
Excerpt: The adenosine deaminase (ADA; EC 3.5.4.4) activity of any of the ADA2 described herein, including a wildtype, variant or conjugate, can be assessed using methods well known in the art. ADA activity assays commonly measure, directly or indirectly, the rate of production a product of the enzymatic reaction. For example, the production of inosine or ammonia can be directly or indirectly measured. In other examples, the decrease of the substrate of the enzyme, e.g., adenosine or 2-deoxyadenosine, is measured. The decrease of the substrate, or the increase of the product, can be measured directly by spectrophotometry, or indirectly, by subsequent enzymatic or oxidation-reduction reactions that use chromogenic substrates or change the absorbance spectra of the reaction.
For example, some commercially available adenosine deaminase (ADA) assays, such as ADA assay kits available from BQ Kits (San Diego, Calif.; Cat. No. BQ014EALD) and Diazyme (Poway, C A; Cat. No. DZ117A-K), utilize colorimetric substrate and spectrophotometric reading to determine the conversion of adenosine to inosine by ADA enzymes. In these assays, the production of inosine is detected by multi-step enzymatic reactions that produce a chromogenic dye. […] The change in absorbance at 556 nm (ΔA556) over time, at 37° C., is measured. […]

[2] = cited from earlier work

B1: ADA2: wild-type human adenosine deaminase 2, mature form SEQ ID NO:5, homodimer (protein, listed as Homo sapiens)
chain: IDETRAHLLLKEKMMRLGGRLVLNTKEELANERLMTLKIAEMKEAMRTLIFPPSMHFFQAKHLIERSQVFNILRMMPKGAALHLHDIGIVTMDWLVRNVTYRPHCHICFTPRGIMQFRFAHPTPRPSEKCSKWILLEDYRKRVQNVTEFDDSLLRNFTLVTQHPEVIYTNQNVVWSKFETIFFTISGLIHYAPVFRDYVFRSMQEFYEDNVLYMEIRARLLPVYELSGEHHDEEWSVKTYQEVAQKFVETHPEFIGIKIIYSDHRSKDVAVIAESIRMAMGLRIKFPTVVAGFDLVGHEDTGHSLHDYKEALMIPAKDGVKLPYFFHAGETDWQGTSIDRNILDALMLNTTRIGHGFALSKHPAVRTYSWKKDIPIEVCPISNQVLKLVSDLRNHPVATLMATGHPMVISSDDPAMFGAKGLSYDFYEVFMGIGGMKADLRTLKQLAMNSIKYSTLLESEKNTFMEIWKKRWDKFIADVATK
modifications: ADA2 mature protein
[1]
  Km of ADA2 for adenosine relative to that of ADA1: approximately 100 times
[2]; for adenosine, wild-type enzyme in humans, read-out: Km
  Km: ~2000 µM
[2]; read-out: Km for adenosine
  Km: ~2250 µM
